Experimental data as given in paper PMC7195432, “MD2 activation by direct AGE interaction drives inflammatory diabetic cardiomyopathy” (Nature Communications, 2020).

Molecular target: T1, glucose-derived AGE-modified bovine serum albumin (AGE-BSA) (bovine, UniProt P02769 25-607, advanced glycation end product (AGE) modification, glucose-derived, glycolaldehyde-mediated; the modified residues are not stated)
T1 construct: bovine serum albumin, chemically AGE-modified; A heterogeneous glycated preparation; also called AGE-modified BSA; glucose-derived, glycolaldehyde-mediated AGE-BSA; source: bought: BioVision Incorporated (Cat # 2223), purity >98%
Assay: ITC; Nano-ITC, 25 °C, proteins in ddH2O; AGE-BSA (1 μM) in the cell, MD2 protein solution (5 μM) in the syringe, 20 injections of 2.5 μL; independent model
Conditions: both partners purified

T1 sequence (P02769 25-607): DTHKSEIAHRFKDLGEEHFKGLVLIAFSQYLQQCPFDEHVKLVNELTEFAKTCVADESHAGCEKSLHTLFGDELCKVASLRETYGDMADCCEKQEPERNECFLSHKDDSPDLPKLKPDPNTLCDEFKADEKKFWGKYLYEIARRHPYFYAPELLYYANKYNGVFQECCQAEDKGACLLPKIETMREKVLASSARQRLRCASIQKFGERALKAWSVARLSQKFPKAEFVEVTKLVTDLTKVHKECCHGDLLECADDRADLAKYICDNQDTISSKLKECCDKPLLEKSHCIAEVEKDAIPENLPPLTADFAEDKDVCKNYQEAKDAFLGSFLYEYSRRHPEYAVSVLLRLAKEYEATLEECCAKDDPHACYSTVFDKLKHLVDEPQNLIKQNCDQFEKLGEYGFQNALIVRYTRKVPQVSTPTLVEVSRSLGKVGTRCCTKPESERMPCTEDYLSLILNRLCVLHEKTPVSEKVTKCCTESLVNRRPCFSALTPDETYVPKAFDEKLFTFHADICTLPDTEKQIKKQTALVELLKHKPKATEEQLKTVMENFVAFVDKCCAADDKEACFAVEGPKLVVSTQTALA

B1: recombinant human MD2 (rhMD2) (natural protein, UniProt Q9Y6Y9 19-160, looked up)
chain: QKQYWVCNSSDASISYTYCDKMQYPISINVNPCIELKRSKGLLHIFYIPRRDLKQLYFNLYITVNTMNLPKRKEVICRGSDDDYSFCRALKGETVNTTISFSFKGIKFSKGKYKCVVEAISGSPEEMLFCLEFVILHQPNSN
notes: MD2 (myeloid differentiation 2), human, recombinant; also called human recombinant MD2 protein; source: bought: R&D Systems
B1 was tested. Which Kd did it give?
The Kd was 81 µM.
